These results are taken from PMC12198772 (PNAS Nexus, 2025).

Values joined by “and” are separate entries in the source; they are usually repeats but may differ in a detail not shown here. Equal values may be shown once. Read-outs that look alike come from different tables or passages of the source.

Holding throughout (assay): BLI
(In general: BLI is a label-free optical method that tracks binding on a fibre tip over time.)

The target in test [1] is T1, human claudin-19 (human, UniProt Q8N6F1 1-224).
T1 sequence: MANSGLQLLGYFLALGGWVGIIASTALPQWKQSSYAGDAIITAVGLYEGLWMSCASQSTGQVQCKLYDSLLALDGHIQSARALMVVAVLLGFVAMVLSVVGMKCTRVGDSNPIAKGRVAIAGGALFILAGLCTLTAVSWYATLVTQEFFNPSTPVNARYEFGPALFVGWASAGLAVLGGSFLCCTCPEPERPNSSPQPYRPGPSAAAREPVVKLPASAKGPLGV

For test [2], the target named is T2, murine claudin-4 (mouse, UniProt O35054 1-210).
T2 sequence: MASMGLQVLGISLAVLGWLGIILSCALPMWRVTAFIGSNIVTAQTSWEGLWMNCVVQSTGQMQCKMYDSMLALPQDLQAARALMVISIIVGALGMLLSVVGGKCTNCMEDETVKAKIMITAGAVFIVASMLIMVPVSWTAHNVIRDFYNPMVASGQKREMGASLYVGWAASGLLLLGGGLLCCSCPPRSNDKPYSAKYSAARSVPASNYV

The target of test [3] is T3, human claudin-17 (human, UniProt P56750 1-224).
T3 sequence: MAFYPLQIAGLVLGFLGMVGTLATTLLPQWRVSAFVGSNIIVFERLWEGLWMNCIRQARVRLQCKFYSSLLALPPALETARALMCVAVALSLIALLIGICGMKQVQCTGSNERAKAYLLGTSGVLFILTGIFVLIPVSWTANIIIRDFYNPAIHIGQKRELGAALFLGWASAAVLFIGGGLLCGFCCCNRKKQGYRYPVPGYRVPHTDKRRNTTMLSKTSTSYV

Test [4] has as its target T4, human claudin-6 (human, UniProt P56747 1-220).
T4 sequence: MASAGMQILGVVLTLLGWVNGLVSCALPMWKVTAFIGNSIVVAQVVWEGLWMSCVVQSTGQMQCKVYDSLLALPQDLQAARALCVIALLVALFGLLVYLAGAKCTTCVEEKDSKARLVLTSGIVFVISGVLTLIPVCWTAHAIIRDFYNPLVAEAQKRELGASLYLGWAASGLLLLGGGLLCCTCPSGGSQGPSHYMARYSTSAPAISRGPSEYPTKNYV

The target in test [5] is T5, human claudin-9 (human, UniProt O95484 1-217).
T5 sequence: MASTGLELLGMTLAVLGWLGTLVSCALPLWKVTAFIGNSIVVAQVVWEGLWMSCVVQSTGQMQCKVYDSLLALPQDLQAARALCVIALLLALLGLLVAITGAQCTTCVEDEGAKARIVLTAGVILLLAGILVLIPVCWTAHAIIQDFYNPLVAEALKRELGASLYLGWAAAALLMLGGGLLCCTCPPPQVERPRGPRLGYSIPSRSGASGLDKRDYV

Test [6] deals with T6, human eye lens-specific protein 20, histidine-tagged (human) (UniProt P55344).
T6 sequence: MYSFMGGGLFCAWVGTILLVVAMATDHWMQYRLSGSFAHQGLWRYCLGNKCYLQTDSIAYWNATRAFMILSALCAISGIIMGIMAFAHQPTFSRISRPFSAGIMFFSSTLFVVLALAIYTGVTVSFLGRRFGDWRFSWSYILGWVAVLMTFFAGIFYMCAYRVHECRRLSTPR

Another test has as its target human occludin (Homo sapiens, UniProt Q16625).
Test [7] has as its target C-terminal domain of Clostridium perfringens enterotoxin, tag removed (Clostridium perfringens, UniProt P01558).
In test [8] the target is T7, human claudin-1 (human, UniProt O95832).
The target of test [9] is T8, human claudin-19 (human, UniProt Q8N6F1).
Test [10] deals with T9, human claudin-18 splice variant 18.1 (human, UniProt P56856).
Test [11] addresses T10, human claudin-6 (human, UniProt P56747).
Test [12] concerns the target T11, human claudin-17 (human, UniProt P56750).
Test [13] addresses T12, human claudin-18 splice variant 18.2 (human, UniProt P56856-2).
Test [14] addresses murine claudin-4 (mouse, UniProt O35054).
The target in the next test is murine claudin-3 (mouse, UniProt Q9Z0G9).
For test [15], the target named is T13, human claudin-3 (human, UniProt O15551).
Test [16] addresses T14, human claudin-9 (human, UniProt O95484).
The target in test [17] is T15, human claudin-4 (human, UniProt O14493).
For test [18], the target named is T16, human claudin-5 (human, UniProt O00501).
The target in test [19] is T17, murine claudin-15 (mouse, UniProt Q9Z0S5).
The target in test [20] is T7, human claudin-1. The source holds these as a separate data set.
For test [21], the target named is T8, human claudin-19. The source holds these as a separate data set.
Test [22] deals with T9, human claudin-18 splice variant 18.1. This is another data set of the same source.
Test [23] has as its target T10, human claudin-6. This is another data set of the same source.
Test [24] deals with T11, human claudin-17. This is another data set of the same source.
In test [25] the target is T12, human claudin-18 splice variant 18.2. The source holds these as a separate data set.
The target in test [26] is T13, human claudin-3. This is another data set of the same source.
Test [27] deals with T14, human claudin-9. The source holds these as a separate data set.
In test [28] the target is human peripheral myelin protein 22 (Homo sapiens, UniProt Q01453).
In test [29] the target is T15, human claudin-4. This is another data set of the same source.
The target in test [30] is Kune-kune from Drosophila melanogaster (Drosophila melanogaster, UniProt A1Z6H0).
For test [31], the target named is T16, human claudin-5. This is another data set of the same source.
For test [32], the target named is T17, murine claudin-15. The source holds these as a separate data set.

T16 sequence (O00501 whole entry): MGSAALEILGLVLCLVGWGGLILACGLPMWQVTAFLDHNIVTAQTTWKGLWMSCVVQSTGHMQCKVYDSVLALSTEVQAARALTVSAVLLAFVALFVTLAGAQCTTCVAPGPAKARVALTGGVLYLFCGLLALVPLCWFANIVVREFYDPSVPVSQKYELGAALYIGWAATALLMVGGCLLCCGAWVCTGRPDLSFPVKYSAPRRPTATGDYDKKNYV
T7 sequence (O95832 whole entry): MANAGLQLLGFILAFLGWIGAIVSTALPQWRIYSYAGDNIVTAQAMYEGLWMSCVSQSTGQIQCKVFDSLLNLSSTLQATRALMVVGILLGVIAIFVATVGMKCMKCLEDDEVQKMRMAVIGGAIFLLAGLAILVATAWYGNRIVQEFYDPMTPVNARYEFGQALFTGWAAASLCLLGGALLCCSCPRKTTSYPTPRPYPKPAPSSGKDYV
Chain of human peripheral myelin protein 22 (Q01453 whole entry): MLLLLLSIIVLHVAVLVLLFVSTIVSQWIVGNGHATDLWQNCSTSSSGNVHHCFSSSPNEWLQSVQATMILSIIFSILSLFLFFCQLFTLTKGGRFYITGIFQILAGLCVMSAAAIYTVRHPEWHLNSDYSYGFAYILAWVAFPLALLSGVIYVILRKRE
T13 sequence (O15551 whole entry): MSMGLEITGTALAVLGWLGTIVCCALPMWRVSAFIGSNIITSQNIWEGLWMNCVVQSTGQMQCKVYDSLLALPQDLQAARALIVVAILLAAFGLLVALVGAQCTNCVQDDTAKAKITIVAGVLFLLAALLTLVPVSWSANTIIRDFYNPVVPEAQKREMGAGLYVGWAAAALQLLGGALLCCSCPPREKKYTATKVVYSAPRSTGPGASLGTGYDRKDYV
T15 sequence (O14493 whole entry): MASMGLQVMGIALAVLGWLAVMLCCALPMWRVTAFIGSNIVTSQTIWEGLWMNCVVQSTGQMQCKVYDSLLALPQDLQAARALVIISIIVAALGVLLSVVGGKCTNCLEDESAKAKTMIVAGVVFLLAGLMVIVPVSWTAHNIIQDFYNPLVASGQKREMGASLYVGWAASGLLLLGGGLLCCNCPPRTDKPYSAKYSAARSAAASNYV
T17 sequence (Q9Z0S5 whole entry): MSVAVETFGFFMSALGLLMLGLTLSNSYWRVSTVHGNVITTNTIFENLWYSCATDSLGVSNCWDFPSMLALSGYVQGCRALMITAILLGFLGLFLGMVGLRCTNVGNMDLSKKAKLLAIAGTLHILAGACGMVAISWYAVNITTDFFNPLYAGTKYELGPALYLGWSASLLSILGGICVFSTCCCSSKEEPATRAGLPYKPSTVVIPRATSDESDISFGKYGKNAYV
Chain of murine claudin-3 (Q9Z0G9 whole entry): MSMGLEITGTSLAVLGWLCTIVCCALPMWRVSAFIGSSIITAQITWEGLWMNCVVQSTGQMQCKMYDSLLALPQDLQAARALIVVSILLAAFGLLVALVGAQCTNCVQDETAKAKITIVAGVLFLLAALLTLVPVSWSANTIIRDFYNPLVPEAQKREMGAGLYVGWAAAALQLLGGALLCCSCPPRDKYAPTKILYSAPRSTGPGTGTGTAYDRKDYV
Chain of human occludin (Q16625 whole entry, the tested form may be a part): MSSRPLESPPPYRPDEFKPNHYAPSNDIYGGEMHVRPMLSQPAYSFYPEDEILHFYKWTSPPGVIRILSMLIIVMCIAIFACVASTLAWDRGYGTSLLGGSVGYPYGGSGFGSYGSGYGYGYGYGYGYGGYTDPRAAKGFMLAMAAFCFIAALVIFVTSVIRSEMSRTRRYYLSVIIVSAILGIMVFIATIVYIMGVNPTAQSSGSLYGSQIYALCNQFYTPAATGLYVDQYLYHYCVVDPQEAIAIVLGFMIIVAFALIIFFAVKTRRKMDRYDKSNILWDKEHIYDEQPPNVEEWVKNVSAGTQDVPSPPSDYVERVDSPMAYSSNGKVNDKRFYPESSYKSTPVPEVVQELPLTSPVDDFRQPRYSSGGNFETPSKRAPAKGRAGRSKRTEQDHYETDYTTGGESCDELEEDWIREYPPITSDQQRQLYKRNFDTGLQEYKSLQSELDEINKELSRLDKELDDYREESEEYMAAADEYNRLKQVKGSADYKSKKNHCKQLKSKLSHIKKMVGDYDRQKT

B1: C-terminal domain of Clostridium perfringens enterotoxin, histidine-tagged (domain or fragment)
chain: EILDLAAATERLNLTDALNSNPAGNLYDWRSSNSYPWTQKLNLHLTITATGQKYRILASKIVDFNIYSNNFNNLVKLEQSLGDGVKDHYVDISLDAGQYVLVMKANSSYSGNYPYSILFQKF
By Kd is commonly meant the constant that tells how readily two partners part at equilibrium. B1: the dissociation constant Kd with human claudin-19 [1] was 27.5 nM; in the test with murine claudin-4 [2], below 20 nM; with human claudin-17 [3], 27 nM; with human claudin-6 [4], 51.4 nM; with human claudin-9 [5], below 20 nM.

B2: COP-1 synthetic antibody fragment (sFab) without histidine tag (Fab, V domains shown)
VH: EVQLVESGGGLVQPGGSLRLSCAASGFNFSSSYIHWVRQAPGKGLEWVASISSSSGSTSYADSVKGRFTISADTSKNTAYLQMNSLRAEDTAVYYCARWFHPWWWWEYLFRGAIDYWGQGTLVTVSS
VL: DIQMTQSPSSLSASVGDRVTITCRASQSVSSAVAWYQQKPGKAPKLLIYSASSLYSGVPSRFSGSRSGTDFTLTISSLQPEDFATYYCQQSSSSLITFGQGTKVEIK
A word on the koff: it is the rate constant with which the complex falls apart. Low readings indicate slow dissociation, high ones fast dissociation. In the case of B2, in test [6], the Kd is 2780 nM and the dissociation rate constant (koff) is 0.11 s⁻¹.

B3: COP-1 synthetic antibody fragment (sFab) with C-terminal histidine tag (Fab, V domains shown)
VH: EVQLVESGGGLVQPGGSLRLSCAASGFNFSSSYIHWVRQAPGKGLEWVASISSSSGSTSYADSVKGRFTISADTSKNTAYLQMNSLRAEDTAVYYCARWFHPWWWWEYLFRGAIDYWGQGTLVTVSS
VL: DIQMTQSPSSLSASVGDRVTITCRASQSVSSAVAWYQQKPGKAPKLLIYSASSLYSGVPSRFSGSRSGTDFTLTISSLQPEDFATYYCQQSSSSLITFGQGTKVEIK
By kon is commonly meant the rate constant with which the complex forms. A low value points to slow association. For B3, the binding result is “no binding (tested: 500 nM)” with human occludin and “no binding” in test [7]. Besides, the Kd was 76.3 nM and 73.2 nM in the test with human claudin-1 [8]; 62.4 ± 1.1 nM with human claudin-19 [9]; 83.4 nM and 56.7 nM in test [10]; 59 ± 0.9 nM with human claudin-6 [11]; 65.5 ± 0.9 nM in the test with human claudin-17 [12]; 62.8 nM and 55.6 nM in test [13]. In addition, the dissociation constant Kd is 99.6 ± 1.2 nM with murine claudin-4 [14]; 90.5 ± 1.2 nM with murine claudin-3; 64.2 ± 1.1 nM in the test with human claudin-3 [15]; 69.9 ± 1.2 nM with human claudin-9 [16]; 72.8 ± 0.9 nM with human claudin-4 [17]; 72 nM and 65.5 nM with human claudin-5 [18]. Besides, the Kd in the test with murine claudin-15 [19] is 63.3 nM and 61.2 nM; with human claudin-1 [20] it was 61.3 ± 0.5 nM; in the test with human claudin-19 [21], 62.2 ± 0.4 nM; in [22] it was 92.4 ± 0.5 nM; in the test with human claudin-6 [23] it was 59.5 ± 0.4 nM; with human claudin-17 [24] it was 80.2 ± 0.6 nM. The dissociation constant (Kd) in test [25] is 66.4 ± 0.5 nM; with human claudin-3 [26], 57.9 ± 0.5 nM; in the test with human claudin-9 [27], 66 ± 0.4 nM; in [28] it was 109.5 ± 0.8 nM; with human claudin-4 [29] it was 70.6 nM and 106 nM; in test [30], 238 ± 2.9 nM. Also, the dissociation constant Kd turned out to be 75.8 ± 0.5 nM in the test with human claudin-5 [31] and 59 ± 0.5 nM with murine claudin-15 [32]. Also, the koff with human claudin-1 [20] was found to be 0.0009 s⁻¹; with human claudin-19 [21] it was 0.0011 s⁻¹; in [22] it was 0.0014 s⁻¹; with human claudin-6 [23], 0.0011 s⁻¹; with human claudin-17 [24], 0.0015 s⁻¹; in test [25], 0.0009 s⁻¹. In addition, the koff was found to be 0.0012 s⁻¹ in the test with human claudin-3 [26]; 0.0015 s⁻¹ with human claudin-9 [27]; 0.002 s⁻¹ in [28]; 0.0044 s⁻¹ in test [30]; 0.0015 s⁻¹ with human claudin-5 [31]; 0.0012 s⁻¹ with murine claudin-15 [32]. The kon was determined as 15000 M⁻¹ s⁻¹ with human claudin-1 [20]; 17000 M⁻¹ s⁻¹ in the test with human claudin-19 [21]; 16000 M⁻¹ s⁻¹ in test [22]; 18000 M⁻¹ s⁻¹ with human claudin-6 [23]; 19000 M⁻¹ s⁻¹ in the test with human claudin-17 [24]; 13000 M⁻¹ s⁻¹ in test [25]. The kon amounted to 21000 M⁻¹ s⁻¹ with human claudin-3 [26]; 22000 M⁻¹ s⁻¹ with human claudin-9 [27]; 18000 M⁻¹ s⁻¹ in test [28]; 18000 M⁻¹ s⁻¹ in [30]; 19000 M⁻¹ s⁻¹ in the test with human claudin-5 [31]; 21000 M⁻¹ s⁻¹ in the test with murine claudin-15 [32]. In addition, the t1/2 with human claudin-1 [20] worked out at 12.8 min; in the test with human claudin-19 [21] it was 10.5 min; in test [22], 8.3 min; in the test with human claudin-6 [23], 10.5 min; with human claudin-17 [24] it was 7.7 min; in test [25], 12.8 min. In addition, the t1/2 with human claudin-3 [26] was found to be 9.6 min; with human claudin-9 [27], 7.7 min; in test [28], 5.8 min; in test [30], 2.7 min; with human claudin-5 [31] it was 7.7 min; with murine claudin-15 [32], 9.6 min.
